Experimental data reported in patent US20160304615A1 (Regeneron, published 2016).

Key:
EGFRvIII-mFc = molecular target: T1, EGFRvIII-mFc (human); assay: SPR 37C, receptor-capture
T1 construct: Soluble dimeric protein
Procedure: Measurements were conducted on a T100 BIACORE™ instrument. […] In the receptor-capture format, either EGFRvIII-mFc or EGFR-mFc, was captured on the BIACORE™ chip and the respective antibodies flowed over. Kinetic association (kₐ) and dissociation (kd) rate constants were determined by processing and fitting the data to a 1:1 binding model using Scrubber 2.0 curve fitting software. Binding dissociation equilibrium constants (KD) and dissociative half-lives (t_{1/2}) were calculated from the kinetic rate constants as: KD (M)=kd/kₐ; and t₁₁₂ (min)=ln2/(60*kd).

[1] = molecular target: T2, C-terminal biotin-labeled EGFR311-326 peptide (human, biotin at the C-terminus); assay: BLI (Octet RED), biotinylated peptide on streptavidin tips
T2 peptide: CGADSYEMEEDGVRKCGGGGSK
Procedure: After peptide capture, the coated tips were placed in 1 μM solutions of antibody and the binding responses were recorded (see FIG. 2). Controls I-III are the same as those described above.

B1: H1H1863N2(Fuc-) (antibody, human IgG1, V domains shown)
VH: EVQLVESGGGLVQPGGSLRLSCAASGFPFSSYDMHWVRQATGKGLEWVSAIGTAGATYYPGSVKGRFTISRENAKNSLYLQMNSLRAGDTAVYYCARGDYVWGTYRPLFDYWGQGTLVTVSS
VL: DIQLTQSPSFLSASVGDRVTITCWASQGINNYLAWYQQKPGKAPKLLIYAASTLQTGVPSRFSGSGSGTEFTLTISSLQPEDFATYYCQQLNSYPLTFGGGTKVEIK
notes: Human IgG1; also called H1H1863N2 with reduced fucosylation; H1H1862N2 (Fuc-)
With B1 the T½ (EGFRvIII-mFc) was 54 min and the binding result [1] was “no binding (tested: 1 µM)”.
